# Experimental data taken from patent US8129349B2, “Treatment of disease by inducing cell apoptosis” (The Regents of the University of California, priority 2000, dated 2012).
# Test system: hepatic stellate cells
# Assay: Apoptosis of activated stellate cells transfected with C/EBPβ constructs, annexin-V-PE binding
# Type: cell-based, mouse
# Details: apoptosis induced by dominant negative MEKK1, IκBα or RSK mutants or by lactacystin
# Source text: FIG. 1 provides data showing that phosphorylation of C/EBPβ on Thr^217 is required for hepatic stellate cell survival. Panel A provides phosphopeptide maps of in vivo labeled endogenous C/EBPβ in day-4 quiescent and activated primary mouse stellate cells cultured from the time of isolation on EHS or collagen type I matrix, respectively. The arrow indicates the peptide containing Phospho-Thr^217 in activated cells. […] Panel B provides phosphopeptide maps of in vitro labeled C/EPBβ. Active p90RSK phosphorylated C/EPBβ, but not C/EBPβ-Ala^217 on Thr^217 in vitro (arrowheads). Panel C provides results for cells cultured on collagen type I transfected with MSV-C/EBPβ antisense (AS), MSV-C/EBPβ sense (S), or MSV-C/EBPβ-Ala^217 together with CMV-GFP (green fluorescent protein) and p90RSK (1 μg each), as indicated in the Figure. Four hours after transfection, annexin-V-PE binding to plasma membranes was determined. The values presented are the percentage of transfected cells (green) that were annexin-V-PE (+) (red) (P<0.05 for C/EBPβ AS, and C/EBPβ-Ala^217). Panel D provides results for cells transfected as in […] with vectors expressing dominant negative mutants for MEKK1, IκBα, or p90RSK, or treated with the proteasome inhibitor lactacystin (10 μM) (closed bars), and co-transfected with MSV-C/EBPβ-Glu^217 (1 μg each) (open bars) as indicated. Annexin-V-PE binding was determined as described for Panel A (P<0.05 for C/EBPβ-Glu^217). Panel E provides results for cells transfected as described for Panel C, with a dominant-negative p90RSK, treated with FAS (100 nM for 6 hours) or cultured in a serum-free medium for 6 hours (closed bars), and co-transfected with MSV-C/EBPβ-Glu^217 (1 μg each) (open bars), as indicated. Cell death was determined by nuclear staining with Hoechst 33342 (P<0.05 for C/EBPβ-Glu^217 in RSK mut and FAS-treated cells).
# FIG. 4 provides results showing that C/EBPβ PThr^217 associates with procaspases 1 and 8, and inhibits their activation. Panel A provides schematic representations of C/EBPβ peptides. The activation (dotted bars), DNA binding (solid bars) and dimerization (hatched bars) domains are shown. […] Panel C provides results showing that C/EBPβ and procaspase 8 were detected in activated stellate cells isolated from C/EBPβ^+/+ mice by confocal microscopy using specific antibodies (Santa Cruz Biotechnology). Control C/EBPβ^−/− stellate cells were negative for C/EBPβ, positive for procaspase 8, and apoptotic. Panel D provides immunoblot results for MSV vectors expressing C/EBPβ-HA (hemagglutinin protein) peptides (0.3 μg) transfected into activated stellate cells. The expressed peptides were immunoprecipitated with anti-HA antibodies. C/EBPβ-PThr^217 was detected using a specific antibody, only in cells expressing wild-type C/EBPβ. […] RSK was associated with all C/EBPβ peptides. Neither C/EBPβ nor procaspases 1 and 8 were detected in C/EBPβ immunoprecipitates from cells expressing C/EBPβ AS. Reciprocal immunoprecipitations of procaspases and RSK confirmed these associations.
# Adult male Sprague-Dawley rats and adult male C/EBPβ^+/+ and C/EBPβ^−/− (Screpanti et al., supra; and Buck et al., (1999), supra), C/EBPβ-Ala^217 and C/EBPβ-Asp^105 transgenic mice were used for the isolation of primary hepatic stellate cells (Houglum et al., supra). Primary hepatic stellate cells were isolated by collagenase/pronase perfusion and purified by a single step density Nycodenz gradient (Accurate Chemical & Scientific) as known in the art (See, Lee et al., (1995), supra). Cells were plated on type I collagen matrix (Becton Dickinson) or EHS matrix (Matrigel, Collaborative Biomedical Products). Cells were cultured with 10% fetal calf serum/10% fetal bovine serum and transfected with lipofectamine (GIBCO) for DNA vectors or with the Chariot reagent (Active Motif) for peptides (10 μM) as known in the art (See, Houglum et al., supra; and Morris et al., J. Biol. Chem., 274:24942-24946 (1999)). […]
molecule,measurement,value
"C/EBPβ-Glu^217: modified murine C/EBPβ with mutation of Thr^217 to glutamic acid (SEQ ID NO:4), phosphorylation mimic (protein, listed as Mus musculus) MHRLLAWDAACLPPPPAAFRPMEVANFYYEPDCLAYGAKAARAAPRAPAAEPAIGEHERAIDFSPYLEPLAPAADFAAPAPAHHDFLSDLFADDYGAKPSKKPADYGYVSLGRAGAKAAPPACFPPPPPAALKAEPGFEPADCKRADDAPAMAAGFPFALRAYLGYQATPSGSSGSLSTSSSSSPPGTPSPADAKAAPAACFAGPPAAPAKAKAKKZVDKLSDEYKMRRERNNIAVRKSRDKAKMRNLETQHKVLELTAENERLQKKVEQLSRELSTLRNLFKQLPEPLLASAGHC",Rescue from induced apoptosis by expressed construct,partially inhibited
